Biological target: Ipf1 (RSV-Ipf1 expression vector) (Mus musculus) (UniProt P52946)
Test: cell_activity
Conditions: betaTC1 cells with RSV-Ipf1; in CHO cells Ipf1 raised activity to the betaTC1 level (about 3-fold over CHO)

Work on “5x P1 site linked to beta-globin TATA box reporter” yielded an activity of 2 fold.

Source: patent US20020082410
